Source: paper PMC8998314, “MYB2 Is Important for Tapetal PCD and Pollen Development by Directly Activating Protease Expression in Arabidopsis”

T1: HIS-MYB2 (Arabidopsis thaliana, UniProt Q39028 1-273)
T1 sequence: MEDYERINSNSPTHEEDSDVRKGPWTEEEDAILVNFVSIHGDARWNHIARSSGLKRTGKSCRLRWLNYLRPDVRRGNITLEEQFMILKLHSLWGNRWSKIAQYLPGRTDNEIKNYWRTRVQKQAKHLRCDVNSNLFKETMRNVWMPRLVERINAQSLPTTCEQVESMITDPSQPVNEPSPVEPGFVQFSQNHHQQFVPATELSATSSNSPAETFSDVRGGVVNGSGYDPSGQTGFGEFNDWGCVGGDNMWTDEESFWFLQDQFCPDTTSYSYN

B1: CEP1 short probe with TAACTG (dsDNA)
DNA 1: TTAGACAACAGTTATTGTAATG
DNA 2: CATTACAATAACTGTTGTCTAA
B2: CEP1 short probe(s) with AAACCA (dsDNA)
DNA 1: GCTCCTGAAAACCATAATCAGA
DNA 2: TCTGATTATGGTTTTCAGGAGC

Molecular target: T1, HIS-MYB2
Assay: EMSA; EMSA binding buffer (Beyotime Chemiluminescent EMSA kit, composition and pH not stated), 30 min at 25 °C
Settings: protein: recombinant; tags: His (pET-30a); label: biotin

| Binder | binding result |
| --- | --- |
| B1 | binds |
| B2 | binds |
